The EC50 is the concentration needed to bring the measured effect to its halfway point. One may read the EC50 (read off the curve) as the midpoint of the concentration-response curve.

Several values for one entry are separate records, joined by “and”; a condition that tells them apart may be missing. Equal entries are not always repeated.

For assay [1], the target named is T1, mCTLA-4, plate-bound (mouse, UniProt P09793 36-162, limits assumed). Put plainly: ELISA (single-sided): coat mCTLA-4 (R&D), detect Anti-mFc-HRP (Jax).
Assay [2] concerns the target T2, HLA class I histocompatibility antigen, alpha chain E (HLA-E), plate-bound recombinant protein (human, UniProt P13747 22-305, limits assumed).
T2 construct: no tag named there; also called recombinant HLA-E protein
Put plainly: ELISA (single-sided): coat hHLA-E (Novus), detect Anti-mFc-HRP (Jax). (An ELISA detects its analyte on a solid surface through an enzyme-linked reagent.)

Assay [3] addresses T3, recombinant mCD47 (mCD47-His) protein (mouse, UniProt Q61735 19-140, limits assumed).
T3 construct: not shown: His tag
T3 sequence (looked up): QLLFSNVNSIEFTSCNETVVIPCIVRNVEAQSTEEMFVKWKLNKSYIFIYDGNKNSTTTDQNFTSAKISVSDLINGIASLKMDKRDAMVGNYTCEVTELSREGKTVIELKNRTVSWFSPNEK
Put plainly: dual/PK ELISA; coat αNKG2a (1:10k), mCD86-fc-NKG2a titrated, detection mCD47-His (5ug/ml), His-HRP. How it is done: Increasing amounts of the mSIRPα-Fc-NKG2A chimeric protein was added and detected using mCD47-His. The CD86-Fc-NKG2A chimeric protein was used as a negative control.
To understand whether the mSIRPα-Fc-NKG2A chimeric protein can binds simultaneously to both anti-NKG2a and CD47, the following ELISA experiment was carried out. Briefly, and anti-NKG2a antibody was coated on plates. Increasing amounts of the mSIRPα-Fc-NKG2A and mCD48-Fc-NKG2A chimeric proteins were added to the plates for capture by the anti-NKG2a antibody. Further, recombinant mCD47 (mCD47-His) protein was added to the plate for capture by mSIRPα-Fc-NKG2A chimeric protein. The binding of the mCD47-His protein was detected using an anti-His HRP antibody.

For another assay, the target named is T4, goat anti-mCD48 antibody.
T4 construct: also called anti-CD48; Anti-CD48
The assay is described as follows: Dual binding ELISA: coat mHLA-E (Novus) as printed, detect Anti-mCD48 (R&D), HRP Anti-Goat HRP; flat curve.

Assay [4] addresses T1, mCTLA-4, plate-bound. Put plainly: ELISA (single-sided): coat mCTLA-4 (R&D), detect Anti-mFc-HRP (Jax); curve near the baseline, about 0.25 only at the highest concentration.
Assay [5] addresses T5, PD-L1, plate-bound (Example 8) (Homo sapiens (Human), UniProt Q9NZQ7 19-238).
T5 construct: not shown: The Fc carrier of the vendor's hPD-L1-Fc (R&D) and any linker
The assay is described as follows: Dual ELISA (capturing with PDL1): coat hPDL1-Fc (R&D), detect hHLA-E (Novus), HRP Anti-6X His; curve low, about 0.45 at the highest concentration.

The target in assay [6] is T6, recombinant human CD28-His (rhCD28-His) (human, UniProt P10747 19-152).
T6 construct: also called Human CD28-His protein; recombinant CD28 protein; not shown: His tag
The assay is described as follows: ELISA: coat rhCD28-His (Acro), detection Anti-hFc-HRP. The procedure:
To understand whether the CD80 and CD86 parts of the hCD80-Fc-NKG2A and hCD86-Fc-NKG2A chimeric protein can bind CD28, ELISA-based assays were performed. Briefly, recombinant CD28 protein was coated on plates and increasing amounts of the hCD80-Fc-NKG2A, hCD86-Fc-NKG2A, and mCD48-Fc-NKG2A chimeric proteins, and recombinant human CD86-Fc (rhCD86-Fc) protein was added to the plates for capture by the plate-bound recombinant CD28 protein. The mCD48-Fc-NKG2A chimeric protein, and recombinant human CDrhCD86-Fc protein was used as negative and positive controls, respectively. The chimeric proteins bound to the recombinant CD28 protein was detected using an anti-human Fc HRP.

Assay [7] addresses T7, recombinant human 2B4-Fc fusion protein (rh2B4-Fc) (human, UniProt Q9BZW8-2 22-221, limits assumed).
T7 construct: not shown: Fc
T7 sequence (looked up): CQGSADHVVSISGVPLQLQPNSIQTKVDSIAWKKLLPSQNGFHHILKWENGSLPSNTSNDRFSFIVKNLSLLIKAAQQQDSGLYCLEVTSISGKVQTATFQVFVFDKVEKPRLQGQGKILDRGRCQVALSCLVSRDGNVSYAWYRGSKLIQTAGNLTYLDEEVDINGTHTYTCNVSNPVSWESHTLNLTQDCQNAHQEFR
Put plainly: dual ELISA; coat rh2B4-Fc, hCD86-Fc-NKG2A titrated, detection HLA-E-His, Anti 6x-His-HRP. How it is done: (§1) (i) recombinant human 2B4-Fc fusion protein (rh2B4-Fc) was coated on plates. Increasing amounts of the hCD48-Fc-NKG2A or hCD86-Fc-NKG2A chimeric proteins were added and detected using HLA-E-His. The hCD86-Fc-NKG2A chimeric protein was used as a negative control (Negative control #1). […] (ii) recombinant human CD2-Fc fusion protein (rhCD2-Fc) was coated on plates. Increasing amounts of the hCD58-Fc-NKG2A or hCD86-Fc-NKG2A chimeric proteins were added and detected using HLA-E-His. The hCD86-Fc-NKG2A chimeric protein was used as a negative control (Negative control #2).
To understand whether the hCD48-Fc-NKG2A chimeric protein can bind simultaneously to both 2B4 and HLA-E, the following ELISA experiment was carried out. Briefly, and recombinant 2B4 (rh2B4-Fc) protein was coated on plates. Increasing amounts of the hCD48-Fc-NKG2A chimeric protein was added to the plates for capture by the recombinant human 2B4-Fc (rh2B4-Fc) protein. Further, recombinant HLA-E (HLA-E-His) protein was added to the plate for capture by hCD48-Fc-NKG2A chimeric proteins. The binding of the HLA-E-His protein was detected using an anti-His 6× HRP antibody.

In assay [8] the target is T8, recombinant human CD2-Fc fusion protein (rhCD2-Fc) (human, UniProt P06729 25-209).
T8 construct: not shown: Fc
T8 sequence (looked up): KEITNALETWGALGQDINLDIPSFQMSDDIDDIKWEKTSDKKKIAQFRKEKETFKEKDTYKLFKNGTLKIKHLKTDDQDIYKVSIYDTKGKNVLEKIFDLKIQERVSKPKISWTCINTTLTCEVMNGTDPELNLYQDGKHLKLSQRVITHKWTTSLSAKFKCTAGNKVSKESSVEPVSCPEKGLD
Put plainly: dual ELISA; coat rhCD2-Fc, hCD86-Fc-NKG2A titrated, detection HLA-E-His, Anti 6x-His-HRP. How it is done:
as §1
To understand whether the hCD58-Fc-NKG2A chimeric protein can bind simultaneously to both CD2 and HLA-E, the following ELISA experiment was carried out. Briefly, and recombinant CD2 (rhCD2-Fc) protein was coated on plates. Increasing amounts of the hCD58-Fc-NKG2A chimeric protein was added to the plates for capture by the recombinant human CD2-Fc (rhCD2-Fc) protein. Further, recombinant HLA-E (HLA-E-His) protein was added to the plate for capture by hCD58-Fc-NKG2A chimeric proteins. The binding of the HLA-E-His protein was detected using an anti-His 6× HRP antibody.

Assay [9] addresses T9, hCD28 expressed on CHO-K1/hCD28 cells (human, UniProt P10747 19-220).
T9 construct: whole, on cells; also called CHO-K1/CD28
Put plainly: flow cytometry on CHO-K1/hCD28 cells (hCD28-C1), APC-A, dose series (doses not given). How it is done:
To determine whether the hCD86-Fc-NKG2A chimeric protein can specifically bind the CHO-K1/hCD28 cells, a flow-cytometry-based assay was carried out. […] The dose dependent shifts in the flow cytometry profiles illustrate a dose-dependent binding of the hCD86-Fc-NKG2A chimeric protein to hCD28 expressed by the CHO-K1/hCD28 cells. A quantitation of binding confirmed a dose-dependent binding (FIG. 65).
Background: In flow cytometry, cells or beads pass a laser one at a time.

In assay [10] the target is T10, anti-human IgG antibody (plate-bound).
T10 construct: also called anti-human Fc antibody
The assay is described as follows: ELISA (single sided Fc): coat Anti-Human IgG (H+L) Jax# 109-005-088, detection HRP Goat anti-human FCgamma. How it is done: Anti-human IgG was coated on plates and increasing amounts of the indicated chimeric proteins were added to the plates. hIgG was used as a positive control, and mCD80-Fc-NKG2A was used as a negative control. The binding was detected using an anti-human Fcgamma HRP.
To understand whether the Fc linkers from the native chimeric proteins can be accessed by anti-human antibodies, ELISA-based assays were performed. For these assays, an anti-human IgG antibody was coated on plates and increasing amounts of the hCD86-Fc-NKG2A and hTGFBR2-Fc-NKG2A, mCD80-Fc-NKG2a chimeric proteins, and a human IgG antibody were added to the plates for capture by the plate-bound anti-human antibody. The human IgG antibody was used as a positive control and to generate a standard curve. The mCD80-Fc-NKG2a chimeric protein was included as a negative control as containing a non-human Fc domain. The protein bound to the anti-human IgG antibody was detected using an anti-human Fcgamma HRP.

The target of assay [11] is T11, recombinant human CD28-Fc (rhCD28-Fc) protein (human, UniProt P10747 19-152).
T11 construct: not shown: Fc
Put plainly: dual ELISA; coat rhCD28-Fc, hCD86-Fc-NKG2a titrated, detection HLA-E-His, Anti-His-6x-HRP; the signal needs both bindings. How it is done:
To understand whether the hCD86-Fc-NKG2A chimeric protein can binds simultaneously to both hCD28 and HLA-E, the following ELISA experiment was carried out. Briefly, and recombinant hCD28 (rhCD28-Fc) protein was coated on plates. Increasing amounts of the hCD86-Fc-NKG2A chimeric protein was added to the plates for capture by the rhCD28-Fc protein. Further, recombinant HLA-E (HLA-E-His) protein was added to the plate for capture by hCD86-Fc-NKG2A chimeric protein. The binding of the HLA-E-His protein was detected using an anti-His 6× HRP antibody.

T2 sequence (P13747 22-305 limits assumed): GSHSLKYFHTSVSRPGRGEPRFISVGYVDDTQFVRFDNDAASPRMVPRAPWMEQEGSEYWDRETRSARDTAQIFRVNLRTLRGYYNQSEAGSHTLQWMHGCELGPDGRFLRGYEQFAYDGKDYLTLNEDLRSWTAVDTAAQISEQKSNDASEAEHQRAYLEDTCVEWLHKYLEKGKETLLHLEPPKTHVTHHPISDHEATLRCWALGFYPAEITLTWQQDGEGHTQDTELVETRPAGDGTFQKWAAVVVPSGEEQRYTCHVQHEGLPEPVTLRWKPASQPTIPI
T9 sequence (P10747 19-220): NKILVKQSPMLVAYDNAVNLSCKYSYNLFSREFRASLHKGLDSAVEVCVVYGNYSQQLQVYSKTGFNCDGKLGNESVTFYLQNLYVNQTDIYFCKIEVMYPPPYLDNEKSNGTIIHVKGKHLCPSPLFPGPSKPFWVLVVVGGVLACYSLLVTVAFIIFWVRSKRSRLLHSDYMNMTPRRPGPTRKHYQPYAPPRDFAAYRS
T6 sequence (P10747 19-152 limits assumed): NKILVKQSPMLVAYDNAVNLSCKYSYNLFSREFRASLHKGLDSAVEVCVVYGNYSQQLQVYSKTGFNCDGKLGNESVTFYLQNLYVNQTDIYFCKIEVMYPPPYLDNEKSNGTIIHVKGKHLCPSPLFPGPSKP
T11 sequence (P10747 19-152 limits assumed): as above
T5 sequence (Q9NZQ7 19-238 limits assumed): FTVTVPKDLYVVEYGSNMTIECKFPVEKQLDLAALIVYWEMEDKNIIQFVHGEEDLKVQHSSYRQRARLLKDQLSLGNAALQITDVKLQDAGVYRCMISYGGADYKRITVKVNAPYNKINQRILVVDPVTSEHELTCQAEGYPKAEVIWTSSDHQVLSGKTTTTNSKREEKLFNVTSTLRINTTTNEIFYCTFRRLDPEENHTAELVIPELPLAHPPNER

B1: mouse CD86-Fc-NKG2A chimeric protein (Fc fusion)
chain: VSVETQAYFNGTAYLPCPFTKAQNISLSELVVFWQDQQKLVLYEHYLGTEKLDSVNAKYLGRTSFDRNNWTLRLHNVQIKDMGSYDCFIQKKPPTGSIILQQTLTELSVIANFSEPEIKLAQNVTGNSGINLTCTSKQGHPKPKKMYFLITNSTNEYGDNMQISQDNVTELFSISNSLSLSFPDGVWHMTVVCVLETESMKISSKPLNFTQEFPSPQTYWKVPRDCGCKPCICTVPEVSSVFIFPPKPKDVLTITLTPKVTCVVVDISKDDPEVQFSWFVDDVEVHTAQTQPREEQFNSTFRSVSELPIMHQDWLNGKEFKCRVNSAAFPAPIEKTISKTKGRPKAPQVYTIPPPKEQMAKDKVSLTCMITDFFPEDITVEWQWNGQPAENYKNTQPIMDTDGSYFVYSKLNVQKSNWEAGNTFTCSVLHEGLHNHHTEKSLSHSPGIIEGRMDTPYTEAKAQINSSMTRTHRDINYTLSSAQPCPHCPKEWISYSHNCYFIGMERKSWNDSLVSCISKNCSLLYIDSEEEQDFLQSLSLISWTGILRKGRGQPWVWKEDSIFKPKIAEILHDECNCAMMSASGLTADNCTTLHPYLCKCKFPI
notes: Batch 1 and Batch 2 were tested; also called mCD86-Fc-NKG2A
B1: the EC50 in the assay with mCTLA-4, plate-bound [1] is 0.000658 µM; in assay [2], 0.0661 µM and 0.0832 µM; with goat anti-mCD48 antibody it was approximately 0.00555 µM; with mCTLA-4, plate-bound [4], approximately 4050 µM; in assay [5], 1.65 µM. The binding result in [3] is reported as “no binding (tested: about log 1.8 ug/ml (roughly 60 ug/ml))”.

B2: human CD86-Fc-NKG2A chimeric protein (Fc fusion)
chain: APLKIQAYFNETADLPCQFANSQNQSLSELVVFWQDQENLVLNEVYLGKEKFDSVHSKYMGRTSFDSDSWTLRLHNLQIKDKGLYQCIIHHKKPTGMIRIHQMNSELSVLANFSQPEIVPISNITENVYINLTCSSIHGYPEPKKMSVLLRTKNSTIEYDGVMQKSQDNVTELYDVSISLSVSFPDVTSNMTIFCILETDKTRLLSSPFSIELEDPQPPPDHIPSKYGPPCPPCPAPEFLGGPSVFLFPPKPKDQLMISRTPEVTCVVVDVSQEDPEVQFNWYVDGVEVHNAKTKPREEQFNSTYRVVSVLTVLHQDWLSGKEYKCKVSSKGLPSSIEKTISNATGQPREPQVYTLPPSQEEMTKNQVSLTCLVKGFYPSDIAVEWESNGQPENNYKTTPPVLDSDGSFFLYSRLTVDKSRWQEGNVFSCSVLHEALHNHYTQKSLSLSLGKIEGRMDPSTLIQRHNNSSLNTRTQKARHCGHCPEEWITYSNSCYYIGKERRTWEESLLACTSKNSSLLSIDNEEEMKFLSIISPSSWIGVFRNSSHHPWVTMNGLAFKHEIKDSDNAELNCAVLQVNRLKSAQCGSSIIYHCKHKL
notes: also called hCD86-Fc-NKG2A
With B2, the binding result in [6] is listed as “binds”; in [7], “no binding (tested: about log 2.7 ug/ml (roughly 500 ug/ml))”; in [8], “no binding (tested: about log 2.7 ug/ml (roughly 500 ug/ml))”; in assay [9], “binds”; in [11], “binds”. Moreover, in assay [10], the concentration for a half-maximal effect (EC50 (read off the curve)) is approximately 1 µg/mL.

The values are drawn from patent publication US20200399344A1 (SHATTUCK LABS, published 2020).
